Test: label from the status in PepcDB records
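Further: failed if final PepcDB status was selected cloned or expressed and not failed if soluble or beyond.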

Row | Sequence | protein production
1 | MRYIKFFKELNNKNVNLVGGKNASIGEMFQELVPIGIKVPDGFAITSEAYWYLLEQGGAKQKIIELLENVDATEIDVLKIRSKQIRELIFGTPFPSDLRDEIFQAYEILSQQYHMKEADVAVRSSATAEDLPDASFAGQQDTYLNIKGKTELIHYIKSCLASLFTDRAISYRASRGFDHLKVALSVGVQKMVRADKGSAGVMFSIDTETGFKDAVFITSAWGLGENVVGGTINPDEFYVFKPTLEQNKRPIIKRQLGNKTQKMVYAPRGSEHPTRNIKTTKKEWQSFSLSDEDVLILAKYAIEIEKHYSKEAKQYRPMDIEWAKDGESGEIFIVQARPETVQSQKSKEESQVFEKFKFKNPNEKKEIILQGRAIGSKIGSGKVRIINDLEHMNSFKEGEILVTDNTDPDWEPCMKKASAVITNRGGRTCHAAIVAREIGVPAIVGVSGATDSLYTGMEITVSCAEGEEGYVYAGIYEHEIERVELSNMQETQTKIYINIGNPEKAFGFSQLPNHGVGLARMEMIILNQIKAHPLALVDLHHKKSVKEKNEIENLMAGYANPKDFFVKKIAEGIGMISAAFYPKPVIVRTSDFKSNEYMRMLGGSSYEPNEENPMLGYRGASRYYSESYNEAFSWECEALALVREEMGLTNMKVMIPFLRTIEEGKKVLEILRKNNLESGKNGLEIYIMCELPVNVILADDFLSLFDGFSIGSNDLTQLTLGVDRDSELVSHVFDERNEAMLKMFKKAIEACKRHNKYCGICGQAPSDYPEVTEFLVKEGITSISLNPDSVIPTWNAVAKLEKELKEHGLTEH | failed
2 | MPMTIKRATWNNGPDLAFDINNKANAAIEKYGREAVINAALGTLLDDKGKIIALPSVYDRLDEMDRSHIASYAPIEGEKDYRKIVIDTLFGPYKPEGYISAIATPGGTGAIRSAIFSYLDEGDPLICHDYYWAPYRKICEEFGRNFKTFEFFTDDFAFNIDVYKEAIDEGIRDSDRIASLINSPGNNPTGYSLSDEEWDEVITFLKEKAEDKDKKITLIVDVAYLEFAGDGDQQRKFFEKFSNLPRNLFVVVAFSMSKSHTAYGLRSGAAVGISSSKEIIEEFEASLAHSARCNWSNGTHAAQNILIELERAENKKIYEQELVDLRNMLKSRADVFVTAAKENKLTMIPYFGGFFTFIPTDKAFDIVKDLEKENIFTIPSAKGIRVAICGVGEEKIPKLVQRLAFYTNKK | not failed
3 | MLHSTAGWKNMDFKRFSLLIATRTILAMLTLIFLTQAIMSDGYHATVLLLSAVLLIQFFEITRFISKTNAELVRFFEAVRHADFSQRFELKSLGTGFDELGSTFTDILKRIQRVRSNQEAELRHIKAIIEHVPVPLLSIDHNGKITLWNNSVRRLFGTNAVTHIDDMAQFNEDFPKKLQSILAGERTLVHITIDDMEHKLIISATEITTATQQETLLSMQDIQSELALAQLQAWQDLVSVLTHEIMNSITPVASLAKTAVDLVQDVQEKTRTLPAITNEITEELDDVLGAVKTVARRSDGLMQFVTSYRRLTRLPSPNKKTISVATIFDHVTTLAKQNWQKDNIELTASITPQALDIHVDPDMIEQILLNLLLNAEHALITTAGVIEKKNSTPKIALNAFLNVRGHVIIEVADNGKGIENKNMTQIFVPFFTTKKEGSGVGLALTRQVMLAHNGKVAVRNNSQGGATFSLTF | failed
4 | MKALSPVRGCYEAVCCLSERSLAIARGRGKGPAAEEPLSLLDDMNHCYSRLRELVPGVPRGTQLSQVEILQRVIDYILDLQVVLAEPAPGPPDGPHLPIQTAELAPELVISNDKRSFCH | failed
5 | MKGFIDDANYSVGLLDEGTNLGNVIDNYVYEHTLTGKNAFFVGDLGKIVKKHSQWQTVVAQIKPFYTVKCNSTPAVLEILAALGTGFACSSKNEMALVQELGVSPENIIFTSPCKQVSQIKYAAKVGVNIMTCDNEIELKKIARNHPNAKVLLHIATEDNIGGEDGNMKFGTTLKNCRHLLECAKELDVQIIGVKFHVSSACKEYQVYVHALSDARCVFDMAGEFGFTMNMLDIGGGFTGTEIQLEEVNHVISPLLDIYFPEGSGIQIISEPGSYYVSSAFTLAVNIIAKKVVENDKFSSGVEKNGSDEPAFVYYMNDGVYGSFASKLSEDLNTIPEVHKKYKEDEPLFTSSLWGPSCDELDQIVESCLLPELNVGDWLIFDNMGADSFHEPSAFNDFQRPAIYFMMSFSDWYEMQDAGITSDAMMKNFFFAPSCIQLSQEDSFSTEA | not failed
6 | MIRQLSLKDYEGVAGSALIDEIRSLGESLQGYNVRHINSTIIGGGVAEILSSLVPLMEDVGLTVNWEVLAGTTEFFHTTKLFHNGMHGQPVNITGEMLENYLAIAQKNQNLLDGDADLVVIHDQQPLGLTAFRGRTRGRWLWYCHVDPRYAVPEVWYFLAPMVATCDAAVFHLPEYARDLEHHHHHH | failed
7 | MATRSCVSRGSAGSAAAGPVEAAIRAKLEQALSPEVLELRNESGGHAVPAGSETHFRVAVVSSRFEGMSPLQRHRLVHEALSEELAGPVHALAIQAKTPAQWRENPQLDISPPCLG | not failed
8 | MVGIRKRKDFFEEFGSELFDNLEEMIEALLEDMGESVPFVYGFSIIRRPGEDPELREFGNISENSEDEENPFPSEIRDPLIDIFESEELIHVLAEIPEIEKEDLLLHATAQNLEIRILGASEYSQDIELPARVDPKSAKASYKNGVLEVTFKRCTEEMPVEIEIN | failed
9 | MRKGLIRNGSYSILLVIYRWFCWAIVLIGIIPVNGVISLAYAATPADWNKGAYAYSAEQTPLSAILADFANSHGVDLVLGNIADNEVTAKIRADNPTLFLDRLALEHRFQWFVYNNALYVSPQDEQASVRLEISPDAAPDIKQALSGIGLIDSRFGWGELPEEGVVLVTGPKAYIDLIRNFSQQREKQDERRKVMIFPLRYASVSDRTLQYRDQKITIPGVATILNELMDGQRAAPAGASGPMPVQPDTGMEAMRDSTRSLMTRLATRTSPGRSGEASSRVTLSGKISADVRNNALLIRDDEKRRAEYQQLVEHIDVPQNLVNIDAIILDVDRTALSRLEANWQAQLGNVSAGSTMMMGRSTLFVSDFKRFFADIQALEGEGTASIVANPSVLTLENQPAIVDFSRTAFITATGERVADIQPVTAGTSLQVTPRVIGEGAQRSIQLVIDIEDGQVETGREGEASGVKRGTVSTQALIGENRALVLGGFHVEESGDRDRRIPILGDIPLLGKLFTSTRHEVSRRERLFILTPHLVGDQTDPTRYVSSVNRQQLNGAMNRVAQRNGKTDLYSLIEGAFRDLASRQLPAGFQADSKGARLGEVCRSQSGLIYDSSRYQWYGNGQVRLSVGVVRNGGTQPQRFDEAACASSRTLAVAVWPKTTLAPGESSEVFLALQPALTAQPTRRNVLISN | failed
10 | MPYVDRQNRICGFLDIEDNENSGKFLRRYFILDTQANCLLWYMDNPQNLAVGAGAVGSLQLTYISKVSIATPKQKPKTPFCFVINALSQRYFLQANDQKDLKDWVEALNQASK | not failed
11 | MKLKNEQQQSWLSLAFVWAGAMISVPGLIIGGTLVAGMPLWEALLTGFIGYGIIVILMILQGIQSSDLQEPSVKVASQVFGIQGSQKIISIILAIACLGWFGLQANVSGGAFTNFLKIYGIDLPVSLSSLIWGIIMLISALYGIKILKILNYFAVPVLVLVCLYGLVASLRNNGWAAVSQYTPQTAGSFMSGLSMTVGSFALGAVIAGDYSQYVSSRKDVVKAATLGILPTGLLMIGVGAVLTIASNTADITEVFMNLGFPVLGIIALILATWTTNAVNAFSGGLALINVFDIPKEKEKVAVGAAGAIGTLLAVVGILNYFTPIMSVLSAMVPPVAGVMIAAYWLINKGDRTKWQPTPGVNKLGVFSWLIGAAVGGIPVIMSFFPNAPQLPNQPLIGIVLSFVIYYFGAKRQQTNTESLEME | failed
12 | MSRRTTLRRVGLLVLGVNLLLVLLKAGVWLTTGSFAVQSEAVNSAADTAYSLVIVAGLYLTTRPPDFEHPHGHERIEPFVSLFVAAGIFAAGGFVLWNAGTALLTGNISVTQGPAAVLVLAFSAVAKYALYRYCLRAGTDRNSPALIATAKDNRNDILTAGAALVGVGGAMAGYPIADPLAALVVAIGIIYTGIEVVQENVTYLVGGAPPEDLRREILRRALDHPKVSGAHDVIAHYVGPEIDVSLHIEVEGDLTLFEAHDIETAVIKSIEELPEVDDAFIHVDPKELGEWKDDEEVERLADLE | failed
13 | IDTVAPDMRIHGFLNAQEFTLYLDTSGEALFKRGLRQTQGEAPLRENLAAGILALTGWQPGTPLLDPMCGSGTLLLEAAQIACRIAPGSGRQFAFEQLKLFDARSWKKLKQTATERQHERTFQSIYGSDLYGSALAHTRNNLAAAGLAECVTLKQANVLEISAPAETGILVSNPPYGVRIGDHQMLAEFYPRLGDVLKQRFSGWRAFLLTADPLLAKSIRLTPSRRTPLFNGALECRLLEYRLVAGSMRREKQPSSESSTNQPIT | failed
14 | MATEIGSPPRFFHMPRFQHQAPRQLFYKRPDFAQQQAMQQLTFDGKRMRKAVNRKTIDYNPSVIKYLENRIWQRDQRDMRAIQPDAGYYNDLVPPIGMLNNPMNAVTTKFVRTSTNKVKCPVFVVRWTPEGRRLVTGASSGEFTLWNGLTFNFETILQAHDSPVRAMTWSHNDMWMLTADHGGYVKYWQSNMNNVKMFQAHKEAIREASFSPTDNKFATCSDDGTVRIWDFLRCHEERILRDTCFHHCRCYFLSVKR | failed
15 | YQAIYRRATTYLAMGRGKAAIVDLERVLELKPDFYGARIQRGNILLKQGELEAAEADFNIVLNHDSSN | failed
16 | MAASTDIAGLEESFRKFAIHGDPKASGQEMNGKNWAKLCKDCKVADGKAVTGTDVDIVFSKVKAKSARVINYEEFKKALEELATKRFKGKSKEEAFDAICQLIAGKEPANIGVTKAKTGGAVDRLTDTSKYTGSHKER | not failed
17 | MATVPSNPAFAPTLSTRGRLNGILFVALFAVAVTQLAAMPAIANLGISPLIVGIVAGALYGNALRDGVPASWAAGINFSARGLLRIAVAFFGLRVSLQEIAEVGWSGLIVSVLVVTSTLLIGLWCGMKVFKLDRDTALLTAAGSAICGAAAVLAFESALRSAPHKSAMAVGSVVLFGTLSMFLYPLAINAGWLHLDTMGAGLLLGGTVHEVAQVVGAASNVSPEATHVATIVKMTRVMLLVPVLLVVGLWISRSRKAGQAQGNGRIAMPWFAFGFLALVLVNSMQVLPGSVTQAVNSLDTFALTMAMTALGMETRFSQIRQAGPRALATGAILNLWLVGGGLAITLGVQKLLG | failed
18 | MKNLKRRVAVVTALALVAALTYVLWPRSESVHVTAYFPRTVGIYPGSDVRVLGVRIGEVEKITPEGDRVRVELKYDEGRRVPADSKAAIINSSVVSDRYVQLLPVYRKGPVLRNGAVIPESRTAVPVELDRVFGSLHTTADALGPQGANKDGSLSRLLGVSADNLDGQGENLNRTVEDLSQAVTTLSDGRKDLFGTVRNLQVFTAALSADDKSVRSFNTGLAEVAGQLAGERKDLADALKNLGTALGDVSAFVKNNKRSLNSNVKGLSKVTKVLVTQRAALAELLEVAPTGLSNLNNAYNPSAGTLDTRNNAQQAQDPAALMCSVLKTTGDEGGKNPDCKELKKLFDSLPKVPQGSAVTGTVDRTLGGILGASA | failed
19 | MLARRIVAKHVTKTTALAMLGTTIVLVILQVLFTYLGELSNLKADYSAWQAFLYVLWGAPRYLYEILPISALIGAILGLGTLASNSELIVMRSVGISLWRIVGWVIRSALVLVLLSFALSEWVVPYTNERANSVKSHQSVAALGEVRGYWSREGQRFIYVDYANSQGQLKRIQVVDFDDNYRLKSVTNAEQGQFVKDGQWLLNHSQQMAIQGQGDAVLANAAKQPFSLALQPKYVHMVTIDPEDLSFSQLVSFMNYMREYSQVPKTYQLAFWKKVASPFALITLVLVACSFIFGPLRQQSMGFRLVIALFIGLGFYYLQDFLGYASLVYNPSPAWFVLGPIVLMFVAGSYLLYRAR | failed
20 | MISRRTFALAAVASVLLGGTFVGAKAGLSYLPPLLFVALRFDIAAVVLLGYVVVTRSRDELLPRTRGDVLGILSTGLFALGLANALIFVGQQSATSAVAAIIFSLNPILTPVFAAILLSDERLSARGGLGMVIGLLGVGLVVSPDPAMLLSGGIGKLILFAGAASAALGSVLIRWSGGGLSSTVRTAWALPVAAALCHALSIGMGESAATAVWSPTAIAALLYVGIFAGAIAYIAYFGLLDVTGAIQANLIFYVVPVVSTLGGWALLGEAITPTAVAGFLTIFTGFVVLGSESVDIRALLPATTDEGDTVSESLGIADEQRGFESD | failed

From a protein production outcome set (Wang et al. 2014)
